Target: T1, Fcab-wt (human, UniProt P01857-1 99-330 = IgG part)
T1 construct: Negative control
Experiment: ELISA on coated human ανβ3 integrin, HRP labelled protein A
Experimental: For the integrin ELISA, 1 ug/ml human ανβ3 integrin in PBS was coated over night on Maxisorp plates and blocked for 1 h with BSA in PBS containing 1 mM Ca2+. […] Bound Fcabs were detected by HRP labelled protein A and TMB as a substrate.

binding result: no binding (tested: 10 ug/ml)
B1: human ανβ3 integrin (Chemicon) (receptor)
chain 1: FNLDVDSPAEYSGPEGSYFGFAVDFFVPSASSRMFLLVGAPKANTTQPGIVEGGQVLKCDWSSTRRCQPIEFDATGNRDYAKDDPLEFKSHQWFGASVRSKQDKILACAPLYHWRTEMKQEREPVGTCFLQDGTKTVEYAPCRSQDIDADGQGFCQGGFSIDFTKADRVLLGGPGSFYWQGQLISDQVAEIVSKYDPNVYSIKYNNQLATRTAQAIFDDSYLGYSVAVGDFNGDGIDDFVSGVPRAARTLGMVYIYDGKNMSSLYNFTGEQMAAYFGFSVAATDINGDDYADVFIGAPLFMDRGSDGKLQEVGQVSVSLQRASGDFQTTKLNGFEVFARFGSAIAPLGDLDQDGFNDIAIAAPYGGEDKKGIVYIFNGRSTGLNAVPSQILEGQWAARSMPPSFGYSMKGATDIDKNGYPDLIVGAFGVDRAILYRARPVITVNAGLEVYPSILNQDNKTCSLPGTALKVSCFNVRFCLKADGKGVLPRKLNFQVELLLDKLKQKGAIRRALFLYSRSPSHSKNMTISRGGLMQCEELIAYLRDESEFRDKLTPITIFMEYRLDYRTAADTTGLQPILNQFTPANISRQAHILLDCGEDNVCKPKLEVSVDSDQKKIYIGDDNPLTLIVKAQNQGEGAYEAELIVSIPLQADFIGVVRNNEALARLSCAFKTENQTRQVVCDLGNPMKAGTQLLAGLRFSVHQQSEMDTSVKFDLQIQSSNLFDKVSPVVSHKVDLAVLAAVEIRGVSSPDHVFLPIPNWEHKENPETEEDVGPVVQHIYELRNNGPSSFSKAMLHLQWPYKYNNNTLLYILHYDIDGPMNCTSDMEINPLRIKISSLQTTEKNDTVAGQGERDHLITKRDLALSEGDIHTLGCGVAQCLKIVCQVGRLDRGKSAILYVKSLLWTETFMNKENQNHSYSLKSSASFNVIEFPYKNLPIEDITNSTLVTTNVTWGIQPAPMPVPVWVIILAVLAGLLLLAVLVFVMYRMGFFKRVRPPQEEQEREQLQPHENGEGNSET
chain 2: GPNICTTRGVSSCQQCLAVSPMCAWCSDEALPLGSPRCDLKENLLKDNCAPESIEFPVSEARVLEDRPLSDKGSGDSSQVTQVSPQRIALRLRPDDSKNFSIQVRQVEDYPVDIYYLMDLSYSMKDDLWSIQNLGTKLATQMRKLTSNLRIGFGAFVDKPVSPYMYISPPEALENPCYDMKTTCLPMFGYKHVLTLTDQVTRFNEEVKKQSVSRNRDAPEGGFDAIMQATVCDEKIGWRNDASHLLVFTTDAKTHIALDGRLAGIVQPNDGQCHVGSDNHYSASTTMDYPSLGLMTEKLSQKNINLIFAVTENVVNLYQNYSELIPGTTVGVLSMDSSNVLQLIVDAYGKIRSKVELEVRDLPEELSLSFNATCLNNEVIPGLKSCMGLKIGDTVSFSIEAKVRGCPQEKEKSFTIKPVGFKDSLIVQVTFDCDCACQAQAEPNSHRCNNGNGTFECGVCRCGPGWLGSQCECSEEDYRPSQQDECSPREGQPVCSQRGECLCGQCVCHSSDFGKITGKYCECDDFSCVRYKGEMCSGHGQCSCGDCLCDSDWTGYYCNCTTRTDTCMSSNGLLCSGRGKCECGSCVCIQPGSYGDTCEKCPTCPDACTFKKECVECKKFDRGALHDENTCNRYCRDEIESVKELKDTGKDAVNCTYKNEDDCVVRFQYYEDSSGKSILYVVEEPECPKGPDILVVLLSVMGAILLIGLAALLIWKLLITIHDRKEFAKFEEERARAKWDTANNPLYKEATSTFTNITYRGT
notes: Bought from Chemicon; coated at 1 ug/ml on Maxisorp plates; also called alpha-v beta-3 integrin

Source: patent US20240150495A1 (F STAR BIOTECHNOLOGISCHE FORSCHUNGS UND ENTWICKLUNGSGES M B …, published 2024)
